First the molecules themselves.
B1: E-9A6-M-11E8 (bispecific antibody)
heavy 1: not shown
heavy 2: QVQLVQSGGGVVQPGRSLRLSCAASGFTFSSYAMHWVRQAPGKGLEWVAVISDDGINKYYADSVKGRFTISRDNSKNTLYLQMNSLRAEDSAVYYCARALPTIFGVVMYFYYGLDVWGQGTTATVSSASTKGPSVFPLAPSSKSTSGGTAALGCLVKDYFPEPVTVSWNSGALTSGVHTFPAVLQSSGLYSLSSVVTVPSSSLGTQTYICNVNHKPSNTKVDKKVEPKSCDKTHTCPPCPAPELLGGPSVFLFPPKPKDTLMISRTPEVTCVVVDVSHEDPEVKFNWYVDGVEVHNAKTKPREEQYNSTYRVVSVLTVLHQDWLNGKEYKCKVSNKALPAPIEKTISKAKGQPREPQVCTLPPSREEMTKNQVSLSCAVKGFYPSDIAVEWESNGQPENNYKTTPPVLDSDGSFFLVSKLTVDKSRWQQGNVFSCSVMHEALHNHYTQKSLSLSPGK
light: not shown
notes: Knobs-into-holes bispecific with a common light chain; also called anti-EGFR/MUC1 bispecific antibody
B2: E-9F3-M-11E8 (bispecific antibody)
heavy 1: not shown
heavy 2: B1 heavy 2
light: not shown
notes: as for B1
B3: E-6C4-M-11E8 (bispecific antibody)
heavy 1: not shown
heavy 2: B1 heavy 2
light: not shown
notes: as for B1
B4: E-9H2-M-11E8 (bispecific antibody)
heavy 1: not shown
heavy 2: B1 heavy 2
light: not shown
notes: Knobs-into-holes bispecific with a common light chain; also called anti-EGFR/MUC1 bispecific antibody; E-9H2-M-llE8
B5: E-9D2-M-11E8 (bispecific antibody)
heavy 1: not shown
heavy 2: B1 heavy 2
light: not shown
notes: as for B1

One may read the Kd as a measure of binding affinity in units of concentration. Low readings indicate tighter binding, high ones weaker binding. A word on the koff: it is a measure of how fast the partners let go of each other. Low readings indicate slow dissociation, high ones fast dissociation. In general, kon refers to the second-order rate constant of association.

The target in this assay is T1, His-tagged human MUC1 protein hMUC1(24-1158)-His (human, UniProt P15941 24-1158).
T1 construct: not shown: His tag
Kind of assay: SPR, Biacore 8K, 1:1 fit.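 Note: His-tagged targets captured on the chip at roughly 100 RU, antibody analytes flowed at 1 µg/mL in HBS-EP+ pH 7.4, 50 s association, 400 s dissociation.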
In the case of B1, binding was put at a Kd of 17.3 nM, the koff worked out at 0.00137 s⁻¹ and the kon is 79100 M⁻¹ s⁻¹.

Take B2: binding was put at a Kd of 5.24 nM, the koff was determined as 0.000543 s⁻¹ and the kon turned out to be 104000 M⁻¹ s⁻¹.

B3 showed a Kd of 6.21 nM, a koff of 0.000575 s⁻¹ and a kon of 92700 M⁻¹ s⁻¹.

For the molecule B4, the Kd was found to be 25.4 nM, the koff was found to be 0.0101 s⁻¹ and the kon is 400000 M⁻¹ s⁻¹.

Take B5: binding was characterised by a dissociation constant (Kd) of 5.97 nM, the koff worked out at 0.000554 s⁻¹ and the kon is 92700 M⁻¹ s⁻¹.

These data come from US20260217860A1 (BIOCYTOGEN PHARMACEUTICALS BEIJING, published 2026).
